This series addresses WT hGRalpha (glucocorticoid receptor) (Homo sapiens, UniProt P04150 1-777). Briefly: EMSA; complex abolished by 50 ng unlabeled probe; 15 min at 25 C; 4.5% acrylamide/bisacrylamide (37:1) gel, 0.25x TBE (50 mM Tris, 50 mM boric acid, 1 mM EDTA); binding buffer and pH not stated (as in ref. 26). As to conditions: protein: ivt; chain copies: 2; label: 32P-dCTP (Klenow fill-in); 5' overhangs AGCT, filled in by Klenow for the labeled probe. For orientation: In EMSA bound probe runs differently from free probe, usually more slowly.

WT hGRalpha (glucocorticoid receptor), sequence (P04150 whole entry): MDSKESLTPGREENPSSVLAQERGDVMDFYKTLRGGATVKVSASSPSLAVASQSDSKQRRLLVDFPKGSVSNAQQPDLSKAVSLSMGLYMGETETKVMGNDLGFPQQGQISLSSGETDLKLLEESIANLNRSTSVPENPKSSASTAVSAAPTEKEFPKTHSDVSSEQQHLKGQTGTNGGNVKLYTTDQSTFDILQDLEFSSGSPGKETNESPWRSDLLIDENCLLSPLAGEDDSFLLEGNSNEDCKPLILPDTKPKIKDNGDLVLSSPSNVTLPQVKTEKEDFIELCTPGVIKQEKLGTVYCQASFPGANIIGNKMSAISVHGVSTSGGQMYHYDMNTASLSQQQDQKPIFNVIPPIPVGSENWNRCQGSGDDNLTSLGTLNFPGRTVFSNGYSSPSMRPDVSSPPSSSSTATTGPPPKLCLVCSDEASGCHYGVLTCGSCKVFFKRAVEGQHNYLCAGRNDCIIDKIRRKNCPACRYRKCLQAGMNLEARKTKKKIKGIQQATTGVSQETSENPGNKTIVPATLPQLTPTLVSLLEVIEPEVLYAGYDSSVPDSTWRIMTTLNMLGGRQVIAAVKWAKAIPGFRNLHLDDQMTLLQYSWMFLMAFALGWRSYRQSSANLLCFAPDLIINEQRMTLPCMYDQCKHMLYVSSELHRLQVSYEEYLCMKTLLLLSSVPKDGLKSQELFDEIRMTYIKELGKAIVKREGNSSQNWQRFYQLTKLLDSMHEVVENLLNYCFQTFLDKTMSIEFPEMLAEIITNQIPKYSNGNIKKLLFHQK

B1: GRE consensus probe (dsDNA)
DNA 1: AGCTGCTCAGCTAGAACACTCTGTTCTCTACT
DNA 2: AGCTAGTAGAGAACAGAGTGTTCTAGCTAGC
As for B1, the binding result is reported as “binds”.

Values taken from paper PMC2962642, “Familial Glucocorticoid Receptor Haploinsufficiency by Non-Sense Mediated mRNA Decay, Adrenal Hyperplasia and Apparent Mineralocorticoid Excess”.
